Substitutions are numbered along the chain they refer to. Blank lines part the entries; values can stand above or below the binder they belong to.
How the values were obtained:
[1] = molecular target: integrin αβ8 (αvβ8), form in the assay not stated (UniProt P06756); test: affinity determination of scFv; method and antigen form not stated
[2] = molecular target: integrin αβ8 (αvβ8), form in the assay not stated (UniProt P06756 31-992); test: as above
Chain of integrin αβ8 (αvβ8), form in the assay not stated (UniProt P06756 31-992) (chain, as listed by the source, chain 1 of 2): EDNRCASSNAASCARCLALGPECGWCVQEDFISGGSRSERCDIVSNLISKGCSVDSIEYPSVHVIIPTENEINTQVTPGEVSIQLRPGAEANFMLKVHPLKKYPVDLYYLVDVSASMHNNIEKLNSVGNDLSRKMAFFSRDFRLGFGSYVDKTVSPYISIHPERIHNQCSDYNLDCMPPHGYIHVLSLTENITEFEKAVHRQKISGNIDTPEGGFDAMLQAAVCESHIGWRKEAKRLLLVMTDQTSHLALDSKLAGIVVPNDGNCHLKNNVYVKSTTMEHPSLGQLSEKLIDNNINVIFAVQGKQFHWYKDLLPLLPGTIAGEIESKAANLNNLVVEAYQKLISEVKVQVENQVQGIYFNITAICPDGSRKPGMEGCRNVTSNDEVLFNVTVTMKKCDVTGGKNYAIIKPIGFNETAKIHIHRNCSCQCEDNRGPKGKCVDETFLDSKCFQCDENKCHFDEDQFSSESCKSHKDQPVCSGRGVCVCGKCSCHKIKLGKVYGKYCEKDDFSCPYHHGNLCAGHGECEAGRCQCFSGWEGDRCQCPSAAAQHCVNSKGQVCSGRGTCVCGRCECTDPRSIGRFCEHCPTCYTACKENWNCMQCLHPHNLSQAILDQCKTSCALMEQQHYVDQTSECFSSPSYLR
Chain of integrin αβ8 (αvβ8), form in the assay not stated (UniProt P06756 31-992) (P06756 31-992, chain 2 of 2): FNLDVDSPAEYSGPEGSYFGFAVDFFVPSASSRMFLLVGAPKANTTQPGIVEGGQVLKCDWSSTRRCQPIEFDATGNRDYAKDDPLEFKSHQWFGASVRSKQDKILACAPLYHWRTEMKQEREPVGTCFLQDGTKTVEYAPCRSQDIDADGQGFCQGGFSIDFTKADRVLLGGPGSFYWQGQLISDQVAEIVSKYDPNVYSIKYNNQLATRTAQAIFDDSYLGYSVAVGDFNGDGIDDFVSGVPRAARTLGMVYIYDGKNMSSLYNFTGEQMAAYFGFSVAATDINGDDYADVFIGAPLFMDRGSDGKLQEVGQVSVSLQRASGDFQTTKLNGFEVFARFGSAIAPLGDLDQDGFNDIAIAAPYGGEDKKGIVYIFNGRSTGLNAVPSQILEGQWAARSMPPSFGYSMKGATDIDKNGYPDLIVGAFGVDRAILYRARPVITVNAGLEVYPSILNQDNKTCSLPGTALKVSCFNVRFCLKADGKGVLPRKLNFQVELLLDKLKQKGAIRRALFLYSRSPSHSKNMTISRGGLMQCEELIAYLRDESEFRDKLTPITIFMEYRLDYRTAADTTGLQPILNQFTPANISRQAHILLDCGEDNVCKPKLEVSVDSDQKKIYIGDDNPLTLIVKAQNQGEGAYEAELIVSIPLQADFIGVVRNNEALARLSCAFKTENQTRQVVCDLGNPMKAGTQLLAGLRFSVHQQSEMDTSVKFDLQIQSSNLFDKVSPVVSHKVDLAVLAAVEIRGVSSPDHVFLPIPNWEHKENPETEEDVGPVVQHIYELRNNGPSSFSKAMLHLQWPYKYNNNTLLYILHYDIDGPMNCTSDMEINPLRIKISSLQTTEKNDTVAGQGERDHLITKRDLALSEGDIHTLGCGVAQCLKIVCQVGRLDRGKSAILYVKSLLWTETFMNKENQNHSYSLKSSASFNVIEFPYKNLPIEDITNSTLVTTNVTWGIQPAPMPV

Chain of integrin αβ8 (αvβ8), form in the assay not stated (UniProt P06756) (chain, as listed by the source, chain 1 of 2): as the sequence (chain, as listed by the source, chain 1 of 2) above
Chain of integrin αβ8 (αvβ8), form in the assay not stated (UniProt P06756) (P06756 31-992, chain 2 of 2): as the sequence (P06756 31-992, chain 2 of 2) above

B1: 11E8Mut39 scFv (scFv, V domains shown, part only)
VH: EVQLQQSGPELMKTGASVKISCKATGYTFSTYWIEWVKQRPGHGLEWIGHTLPGSGTTNYNEKFKGRATITADRPSNTSYMQLSSLTYGDSAVFYCATWGWDTYWDHGTSVTVSS
VL: DIEMTQSPSSLSASLGDRVTISCSTSQDVSSYLNWYQQKPDGTVTLLIYYASNLHSGVPSRFSGSGSGTDYSLAISNLEPEDIATYYCQQYSNLPYTFGGGTKLEIKA
modifications: linker not given; order not stated
Kd [1]: 21.1 nM

B2: 11E8 scFv (scFv, V domains shown)
VH: B1 VH with T31S, H50D, T51I, I70V, P75S, S79A, F94Y, H107Q
VL: DIVMTQSPSSLSASLGDRVTISCSASQGISNYLNWYQQKPDGTVKLLIYYTSSLHSGVPSRFSGSGSGTDYSLTISNLEPEDIATYYCQQYSNLPYTFGGGTKLEIK
Kd [2]: > 250 nM

B4: 4F1 scFv (scFv, V domains shown)
VH: QVQLQQSGAELVRPGTSVKVSCKASGYAFTNYLIEWVKQRPGQGLEWIGVINPGTGGTNYNKKFKVKATLTADKSSSTAYMQLGGLTFDDSAVYFCAREGNARTYYYAMDYWGQGTSVTVSS
VL: DIEMTQTPASLSASVGETVTITCRASENIYSYLVWYQQKQGKSPQVLVYNAKTLAEGVPSRFSGSGSGTQFSLKINSLQPEDFGSYYCQHHNGTPYTFGGGTKLEIK
Kd [2]: > 100 nM

B5: 6B9 scFv (scFv, V domains shown)
VH: QVQLQQSGAELVRPGTSVKVSCKASGYAFTDYLIEWVKQRPGQGLEWIGVINPETGGTNYNAKFKGKATLTADKSSSSAYMQLSSLTSGDSAVYFCAREAGNYIYAMDYWGQGTSVTVSS
VL: B4 VL with E3Q, T7S, E27V, V46L, Y49H, N92H
Kd [2]: 14.8 nM

B6: 6B9Mut1 scFv (scFv, V domains shown)
VH: B5 VH with K65R
VL: B4 VL with E3V, T7S, E27V, V46L, Y49H, N92H
Kd [2]: 9.34 nM

B7: 11E8Mut94 scFv (scFv, V domains shown, part only)
VH: EVQLQQSGPELMKTGASVKISCKATGYTFSSYWIEWVKQRPGHGLEWIGDILPGSGTTNYNEKFEGRAAITADTSSNTSYMQLSSLTSEDSAVYYCARWGWDSYWGQGTLVTVSS
VL: DIKMTQTPSSLSASLGDRVTISCSASQGISNYLNWYQQKPDGTVKLLIYYTSSLHSGVPSRFSGSGSGTDYSLTISNLEPEDIATYYCQQYSNLPYTFGGGTKLEIKR
modifications: linker not given; order not stated
Kd [1]: 3.2 nM

B9: 14E5Mut54 scFv (scFv, V domains shown, part only)
VH: B7 VH with P9A, T14P, S31T, Y32N, V37I, D50H, G56V, T57I, E65K, R67K
VL: B7 VL with K3V, S22R
modifications: linker not given; order not stated
Kd [1]: 2.09 nM

B10: 14E5 scFv (scFv, V domains shown)
VH: B7 VH with P9A, T14P, S31T, V37I, D50H, G56V, T57I, E65K, R67K
VL: B2 VL with V3E, A25T, G28D, N31S, Y32S, K45T, S53N, N93K
Kd [2]: 14 nM

B11: 14E5Mut68 scFv (scFv, V domains shown, part only)
VH: B7 VH with P9A, T14P, S31T, V37I, E65K, A69T, I70V, T74R, S79A
VL: B7 VL with T7S, N93E
modifications: linker not given; order not stated
Kd [1]: 1.42 nM

B13: 14E5Mut11 scFv (scFv, V domains shown)
VH: B7 VH with P9A, T14P, S31T, Y32N, V37I, D50H, G56V, T57I, E65K, R67K
VL: B2 VL with V3L, N31K
Kd [2]: 3.85 nM

Continued by falling Kd [2], values first:

Kd [2]: 3.52 nM
B8: 11E8Mut28 scFv (scFv, V domains shown)
VH: B7 VH with E65K, R67K, M81L
VL: B2 VL with Y91F

Kd [2]: 3.35 nM
B14: 14E5Mut42 scFv (scFv, V domains shown)
VH: B7 VH with Q3P, P9A, T14P, S31T, V37I, D50H, G56V, T57I, E65K, R67K
VL: B2 VL with S7T, N93D

Kd [2]: 3.04 nM
B3: 14E5Mut65 scFv (scFv, V domains shown)
VH: QVQLQQSGAELMKPGASVKISCKATGYSFSTNWIEWIKQRPGHGLEWIGHILPGSVITNYNEKFKGKAAITADTSSNTSYMQLSSLTSDDSAVYYCARWGWDSYWGQGTLVTVSS
VL: B2 VL with V3K, Y91F

Kd [2]: 1.83 nM
B15: 14E5Mut95 scFv (scFv, V domains shown)
VH: B3 VH with Q1E, S7T, S28T, N32Y, A69V, D89E
VL: B2 VL with V3E, N93D

Kd [2]: 1.79 nM
B12: 14E5Mut83 scFv (scFv, V domains shown)
VH: B3 VH with Q1E, E10V, S28T, N32H, D89E
VL: B2 VL with V3L, N93D
